One block for each binder: values may come before it.
Key:
DR3 (CRD1)-Fc = target: T1, DR3 (CRD1)-Fc (human); assay: SPR
T1 construct: Amino acids 25-71 of DR3 fused to the Fc domain of human IgG4; purified to exclude oligomers (mainly dimeric)
From the text: The extracellular moiety of DR3 is located at the aminoterminal portion of DR3 and is comprised of four TNF receptor cysteine-rich domains. Several fusion proteins were expressed and purified which contained parts of the extracellular domain of DR3 of increasing length fused to the Fc domain of a human IgG4. The DR3 proteins used for SPR analysis had been purified to exclude oligomerized material. These proteins were immobilized to a CM5 sensor chip using amine coupling chemistry. Binding of anti-DR3 antibodies termed 0070, 0072, 0073 and 0076, to the different DR3-Fc fusion proteins was tested by means of plasmon surface binding measurements on a Biacore T100 instrument (GE Healthcare). All of these antibodies inhibit binding of TL1A to DR3 in a FACS assay. These 4 antibodies bound to recombinant DR3 (CRD1)-Fc protein that contained only the aminoterminal CRD (SEQ ID NO:2) comprised of amino acids 25-71 of DR3.
The same analysis was also performed for some of the Fab fragments.

[1] = target: T2, human DR3 (full length, on cells) (human, UniProt Q93038 25-417); assay: cell-based or functional assay
T2 sequence: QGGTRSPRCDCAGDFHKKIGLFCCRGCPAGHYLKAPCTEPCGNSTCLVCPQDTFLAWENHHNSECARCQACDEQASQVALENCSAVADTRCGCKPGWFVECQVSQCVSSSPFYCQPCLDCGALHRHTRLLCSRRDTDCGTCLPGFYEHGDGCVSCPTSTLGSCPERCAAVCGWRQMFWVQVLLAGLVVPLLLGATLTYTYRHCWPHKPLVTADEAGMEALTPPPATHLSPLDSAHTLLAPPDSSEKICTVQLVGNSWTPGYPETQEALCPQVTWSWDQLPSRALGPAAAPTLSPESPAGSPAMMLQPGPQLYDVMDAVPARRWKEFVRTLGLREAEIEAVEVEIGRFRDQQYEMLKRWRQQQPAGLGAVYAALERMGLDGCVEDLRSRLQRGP

[2] = target: T3, cynomolgus DR3 (on HEK293 reporter cells) (cynomolgus, UniProt A0A2K5WJ09 98-464); assay: cell-based or functional assay
T3 sequence: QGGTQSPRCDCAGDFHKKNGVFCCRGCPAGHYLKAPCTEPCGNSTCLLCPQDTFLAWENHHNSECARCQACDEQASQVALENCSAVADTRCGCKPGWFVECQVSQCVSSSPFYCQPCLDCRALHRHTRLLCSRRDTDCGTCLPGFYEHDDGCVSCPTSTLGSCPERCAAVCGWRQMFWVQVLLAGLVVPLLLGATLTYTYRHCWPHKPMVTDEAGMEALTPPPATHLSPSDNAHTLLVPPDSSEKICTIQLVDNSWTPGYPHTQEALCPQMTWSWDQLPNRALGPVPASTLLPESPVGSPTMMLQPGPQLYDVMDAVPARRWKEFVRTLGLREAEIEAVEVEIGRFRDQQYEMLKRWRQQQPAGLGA

[3] = target: T2, human DR3 (full length, on cells); assay: cell-based or functional assay; remark: listed apart in the source
[4] = target: T3, cynomolgus DR3 (on HEK293 reporter …); assay: cell-based or functional assay; remark: listed apart in the source
[5] = target: T4, marmoset DR3 (transiently expressed on HEK293 cells) (marmoset, UniProt U3ENN5 27-418); assay: cell-based or functional assay
T4 sequence: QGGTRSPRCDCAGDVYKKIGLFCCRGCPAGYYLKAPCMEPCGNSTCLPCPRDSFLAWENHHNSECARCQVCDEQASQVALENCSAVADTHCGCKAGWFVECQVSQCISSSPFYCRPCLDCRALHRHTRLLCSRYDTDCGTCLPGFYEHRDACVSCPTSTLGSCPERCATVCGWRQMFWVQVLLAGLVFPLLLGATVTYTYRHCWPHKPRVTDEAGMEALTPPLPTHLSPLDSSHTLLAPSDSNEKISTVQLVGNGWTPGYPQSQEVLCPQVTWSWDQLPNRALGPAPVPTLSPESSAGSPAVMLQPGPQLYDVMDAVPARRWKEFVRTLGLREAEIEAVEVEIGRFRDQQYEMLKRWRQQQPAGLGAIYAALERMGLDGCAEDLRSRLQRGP

[6] = target: T2, human DR3 (full length, on cells); assay: cell-based or functional assay; remark: listed apart in the source
[7] = target: T5, human DR3 with the death domain deleted (ΔM339-P417 of SEQ ID NO:1), expressed on CHOK1SV cells (human, UniProt Q93038 25-338); assay: flow cytometry competition: Fab vs TL1A on hDR3-expressing CHO cells
T5 construct: also called truncated DR3; hDR3 expressing CHO cells
T5 sequence: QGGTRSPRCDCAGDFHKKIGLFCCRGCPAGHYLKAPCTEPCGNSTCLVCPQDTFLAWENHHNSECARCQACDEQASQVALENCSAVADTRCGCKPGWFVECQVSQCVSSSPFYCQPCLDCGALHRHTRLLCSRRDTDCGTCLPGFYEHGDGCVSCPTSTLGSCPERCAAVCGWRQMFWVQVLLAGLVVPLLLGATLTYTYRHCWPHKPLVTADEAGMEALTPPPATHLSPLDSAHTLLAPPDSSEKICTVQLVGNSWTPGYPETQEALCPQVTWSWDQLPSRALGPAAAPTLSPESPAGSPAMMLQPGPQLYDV

DR3 (ECD)-Fc = target: T6, DR3 (ECD)-Fc (human); assay: HX-MS with hDR3 ECD-Fc
T6 construct: ECD of DR3, a linker with a TEV cleavage site and the Fc part of human IgG4; dimeric fraction used; also called DR3-Fc; hDR3-Fc
Procedure: The Leap robot was equipped with two temperature controlled stacks maintained at 20° C. for buffer storage and HX reactions and maintained at 2° C. for storage of protein and quench solution, respectively. The Waters HDX system furthermore contained a temperature controlled chamber holding the pre- and analytical columns, and the LC tubing and switching valves at 1° C. A separately temperature controlled chamber holds the pepsin column at 25° C. […] The resulting peptides were trapped and desalted on a VanGuard pre-column BEH C18 1.7 μm (2.1×5 mm (Waters Inc.)). Subsequently, the valves were switched to place the pre-column inline with the analytical column, UPLC-BEH C18 1.7 μm (1×100 mm (Waters Inc.)), and the peptides separated using a 9 min gradient of 10-40% B delivered at 200 μl/min from the nanoAQUITY UPLC system (Waters Inc.). The mobile phases consisted of A: 0.1% formic acid and B: 0.1% formic acid in CH₃CN. The ESI MS data, and the separate elevated energy (MS^E) experiments were acquired in positive ion mode using a Synapt G2 mass spectrometer (Waters Inc.).
All HX reactions were carried out at 20° C. and contained […] hDR3 in the absence or presence of […] Fab thus giving a 5 fold molar excess of Fab. […]

[8] = target: T5, human DR3 with the death domain deleted …; assay: FACS on DR3 expressing cells; competitor Mab 0107
[9] = target: T5, human DR3 with the death domain deleted …; assay: FACS on DR3 expressing cells; competitor Mab 0121

binding result (DR3 (CRD1)-Fc): binds | IC50 at 40 ng/ml TL1A, I5 reporter cells [1]: 188 pM | IC50 at 40 ng/ml TL1A, Lyda20 reporter cells [2]: 236 nM | IC50 at 40 ng/ml TL1A, transient reporter HEK293 [3]: 330 pM | IC50 at 40 ng/ml TL1A, transient reporter HEK293 [4]: 99 nM | IC50 at 40 ng/ml TL1A, transient reporter HEK293 [5]: 323 pM | IC50, TNFalpha inhibition, TL1A-activated CD4+ T cells, donor 1 [6]: 0.301 nM | IC50, TNFalpha inhibition, TL1A-activated CD4+ T cells, donor 2 [6]: 0.32 nM | IC50, TNFalpha inhibition, average (n 22) [6]: 0.208 nM | max % inhibition of TNFalpha, donor 1 [6]: 83.5% | max % inhibition of TNFalpha, donor 2 [6]: 75.9%
B1: 0123 (chimeric Fab of 27F44, human IgG4 constant domain, hinge Cys->Ser) (Fab, V domains shown)
VH: EVKLVESGGGLVKPGGSLKLSCSASGFAFSNYDMSWVRQTPEKRLEWVAAFSSDGYTFYPDSLKGRFTISRDNARNTLYLQMSSLGSEDTALYCCARHADYANYPVMDYWGQGTSVTVSS
VL: DIVLAQSPASLLVSLGQRATISCRASKSVSTSGYSYMHWYQQKPGQPPKLLIYLASNLESGVPARFSGSGSGTDFTLNIHPVEEEDAATYYCQHSRELPLTFGAGTMLELKR
notes: murine variable domains, human IgG4 constant domain (IgG4-Ser)
IC50 [7]: 0.443 nM | max percentage inhibition [7]: 80%

binding result (DR3 (ECD)-Fc): binds | max % inhibition of TNFalpha, donor 1 [6]: 9.5% | max % inhibition of TNFalpha, donor 2 [6]: -8.5%
B2: 0148 (chimeric Fab of 5F13, human IgG4 constant domain, hinge Cys->Ser) (Fab, V domains shown)
VH: EVQLVESGGGLVKPGGSLKFSCAVSGFTFSSYVMSWVRQTPEKRLEWVAAISSDSTYTYYLDSVKGRFTISRDNAKNTLYLQMSSLRSEDTAMYYCARQTRSDAMDYWGQGTSVTVSS
VL: DIVLTQSPASLAVSLGQRATISCRASESVDNYGNSFMHWYQQKPGQPPKLLIYRASNLESGIPARFSGSGSRTDFTLTINPVEADDVAIYYCQQSNEDPLTFGAGTKLELKR
notes: IgG4-Ser, chimeric
molar ratio Mab/Fab from which the Fab inhibits [8]: 100 Fab per Mab (molar ratio Mab/Fab 1:n) | molar ratio Mab/Fab from which the Fab inhibits fully [9]: 3 Fab per Mab (molar ratio Mab/Fab 1:n) | IC50 [7]: 9.22 nM | max percentage inhibition [7]: 33%
